Data from patent US20250236667A1, “ANTIBODIES TO MUTANT CALRETICULIN AND USES THEREOF” (CENTRAL ADELAIDE LOCAL HEALTH NETWORK INC, priority 2021, published 2025).

How the values were obtained:
Format in all cases: cell-based, human
[1] = tested on: wild type TF-1 TpoR expressing cells; assay: Flow cytometry of 4D7 binding to the cell surface, wild type cells; details: PE-conjugated 4D7; wild type TF-1 TpoR cells
[2] = tested on: TF-1 TpoR CALR^del61 and TF-1 TpoR CALR^del52 cells; assay: Western blot of caspase 3 cleavage; details: after 4D7 treatment, 20 μg/mL
Protocol: A. Cell extracts blotted for phospho-STAT5, total STAT5, phospho-ERK, total ERK and actin from TF-1 TpoR cells after incubation with 10 or 20 μg/mL 4D7 or IgG for 4 or 8 hours, in presence of TPO. The last line indicates TPO withdrawal. B. Similar experiment using TPO-independent TF-1 TpoR CALR^del61 cells. C. Similar experiment using TPO-independent TF-1 TpoR CALR^del52 cells at 8 hours. D. Fraction of apoptotic sub-Go population of TF-1 TpoR CALR^del61 cells after 48 hours of 4D7 or IgG treatment (n=3). E. Western blot showing caspase 3 cleavage occurring within 24 hours of TPO withdrawal in TPO dependent TF-1 TpoR cells. An increase in cleaved caspase 3 is observed after 48 hours of treatment with 20 μg/mL 4D7 in TF-1 TpoR CALR^del61 and TF-1 TpoR CALR^del52 cells. F. Western blot of TpoR immunoprecipitation under non-reducing conditions showing associated CALR 50 kDa monomers and 100 kDa dimers (arrowheads) present only in TF-1 TpoR CALR^del61 disrupted by 8 hour treatment with 20 μg/mL 4D7 but not PBS or 20 μg/mL IgG. CALR monomers & dimers are detectable by polyclonal anti-wild type CALR or anti-mutant CALR monoclonal antibodies. Arrowheads, detected mutant CALR protein: asterisk, non-specific bands. G. Proposed model for the mechanism of action of 4D7 on mutant CALR. […]

[3] = tested on: healthy cord blood CD34+ cells; assay: cells
Protocol: Umbilical cord blood (UCB) was collected with written consent from full-term deliveries at the Women's Health Unit, Lyell McEwin Hospital (Adelaide, South Australia) or the Department of Obstetrics and Gynecology, Medical University of Graz (Austria) with institutional review board approval (IRB approval: 31-322 ex 18/19; HREC/20/WCHN/65). Samples were processed using a Ficoll-Paque (GE Healthcare) density gradient to isolate mononuclear cells (800×g, room temperature, 30 minutes, deceleration off), followed by red cell lysis (ammonium-chloride-potassium lysing buffer) to remove remaining red blood cells. CD34 enrichment was performed by magnetic cell separation using CD34 Microbead kit (Miltenyi Biotech). Alternatively, purified CD34+ cells from cord-blood were purchased from Lonza. CD34+ cells with a purity above 90% were either cryopreserved or directly cultured in serum-free stem cell retention media (StemSpan SFEMII, Stemcell Technologies, Vancouver, BC, Canada) supplemented with human recombinant SCF, TPO, FLT3, IL-6 (all 20 ng/mL), UM729 (1.75 uM) and StemReginin 1 (SR1, 300 nM). All cytokines and SRI were purchased from PeproTech (Rocky Hill, NJ, USA) whereas UM729 was purchased from Stemcell Technologies.
(§1) For megakaryocyte differentiation assays, CD34+ cells derived from cord blood or from patient peripheral blood mononuclear fractions were plated in Megacult (MegaCult™-C Collagen and Medium with Lipids) with added IL-3 and IL-6 (10 ng/ml) in the presence or absence of 50 ng/mL TPO. Cells were plated at an initial density of 1800 cells/well and cultured for 12 days at 37° C. and 5% CO2. […] Culture media was replenished every 3 days and cells were assessed for megakaryocyte differentiation on day 12 using anti-human CD41/61 PE-Cy7 (Clone A2A9/6) and CountBright beads (Thermo Fisher) to enumerate cell numbers. […] Cells were seeded at approximately 100 cells per well and were cultured in the presence of 20 μg/mL 4D7 or control IgG antibody and scored for colony and blast forming units at 12-14 days.

[4] = tested on: primary CD34+ cells from patients with CALR mutant myelofibrosis; assay: TPO-independent megakaryocyte colony formation on collagen-based medium (MegaCult)
Source text: Patient samples were collected with informed consent from the South Australian Cancer Research Biobank (SACRB: Adelaide, Australia). Primary CD34+ stem/progenitor cells from peripheral blood samples from patients with JAK2^V617F or CALR mutant myelofibrosis were purified by flow cytometry using CD34-APC antibody, anti-human CD45RA Brilliant Violet 605, anti-CD90 FITC, anti-human CD123-PE, anti-human CD38 PE-Cy7, or with CD34-APC antibody, anti-human CD3 FITC, anti-human CD19-PE (clone H1B19) and anti-human CD14 PE-Cy7.
as §1

B1: 4D7: rat monoclonal IgG2a antibody against the mutant CALR neoepitope; VH SEQ ID NO: 5, VL SEQ ID NO: 7 (antibody, listed as Rattus rattus, V domains shown)
VH: QVQLQQSGAELAKPGSSVKISCKASGYTFTNYDMSWIKQRPGQALEWIGAINPGNGVTDYNEKFRGKATLTVDKSSSTAFMQLSSLTPEDTAVYHCAREYRDNYGYFDYWGQGVMVTVSS
VL: DIVLTQTPVSLSVTLGDQASISCRSSQSLEYSDGYTYLDWFLQKPGQSPQLLIYEVSSRFSGVPDRFIGRGSGTDFTLKISRVEPEDLGVYYCFQATHDPFTFGSGTKLEIK
With B1 the “binding to the cell surface” value [1] was “but not wild type TF-1 TpoR expressing cells”, the “time at which caspase 3 cleavage occurred” value [2] was at most 24 h and the “time at which caspase 3 cleavage peaked” value [2] was 48 h. For the same molecule, the “effect on normal hematopoiesis” value [3] was “no effect”, the “decrease of primary TPO-independent megakaryocyte colonies (colony-forming unit-mega)” value ([4]; 20 μg/mL vs IgG, n=4 patient samples) was 46% and the “size of megakaryocyte colonies” value ([4]; patient with a type 2 mutation) was “substantially smaller”.
